By IC50 is commonly meant the midpoint of a concentration-inhibition curve.

Read-outs that look alike come from different tables or passages of the source.

The subject of data set [1] is conserved p53-binding promoter of miR-192. The experiment in a line: luciferase reporter assay of p53-binding promoter of miR-192. Type of data set: cell-based, human. The note with it: HCT (wt-p53) cells, 5 μmol/L for 24 hours.
From the text: Luciferase reporter assay was used to determine the transcriptional activation of conserved p53-binding promoter of miR-192. pGL3-Basic promoterless luciferase reporter plasmid (Promega) was used in this study. Double-stranded DNA oligonucleotides of conserved p53-binding sequence of miR-192 was synthesized and annealed and cloned upstream of firefly luciferase in the pGL3-Basic plasmid (miR-192-pGL3). […] Control vector and miR-192-pGL3 vector were transfected into both HCT-116 (wt-p53) and HCT-116 (null-p53) cells. To further induce p53 expression, transfected HCT-116 (wt-p53) and HCT-116 (null-p53) cells were also treated with 5 μmol/L 5-fluorouracil for 24 hours. The promoter activity of each construct was quantified by dual luciferase assay (Promega) 24 hours after transfection.
A further data set concerns HCT-116(wt-p53) cells. The experiment in a line: WST-1 chemosensitivity to TDX after transfection. In kind it is cell-based. The note with it: Homo sapiens, HCT-116, 72 h. As for the experimental part:
HCT-116 (wt-p53) cells were plated in 96-well plates at 1×10^3 cells/well in triplicate and were transfected with miR-215 precursor, non-specific control miRNA, or siRNA against TS or DHFR in 100 μl of medium. […] To measure viable cells, 10 μl of WST-1 (Roche Applied Science) was added to each well. After 2 hours incubation, absorbance was measured at 450 and 630 nm respectively (n=3). Non-specific control miRNA alone was used as a negative control, and siRNAs incubation with TDX or MTX were used as the positive controls.
(Tetrazolium dyes change colour on reduction, which living cells bring about.)

The next data set has as its system miR-192. The data set can be described thus: real time qRT-PCR of endogenous mature miR-192 after MTX treatment. In kind it is cell-based, human. The protocol:
Thereafter, the expression of endogenous mature miR-192 was analyzed by real time qRT-PCT analysis using an internal control RNU6B as an internal standard for normalization. The cDNA synthesis was carried out with the High Capacity cDNA synthesis kit (Applied Biosystems) using 10 ng of total RNA as template. The miRNA sequence-specific RT-PCR primers for miR-192 and endogenous control RNU6B were purchased from Ambion. Real-time quantitative reverse transcription-PCR (qRT-PCR) analysis was carried out using Applied Biosystems 7500 Real-Time PCR System. The PCR master mix containing TaqMan 2× Universal PCR Master Mix (No Amperase UNG), 10× TaqMan assay and RT products in 20 μl volume were processed as follows: 95° C. for 10 minutes, and then 95° C. for 15 seconds, 60° C. for 60 seconds for up to 40 cycles (n=3). Signal was collected at the endpoint of every cycle. The gene expression ΔCT values of miRNAs from each sample were calculated by normalizing with internal control RNU6B and relative quantitation values were plotted.
For orientation: Quantitative PCR measures a nucleic acid by following its amplification.

Data set [2] deals with U-2 OS cells. The data set can be described thus: WST-1 chemosensitivity to MTX after transfection. In kind it is cell-based. The note with it: for IC50: Homo sapiens, U2OS, 72 h.
In a further data set the test system is TS mRNA. The experiment in a line: real time qRT-PCR of TS mRNA. Type of data set: cell-based. The note with it: U-2 OS cells.
In the next data set the test system is DHFR mRNA. The experiment in a line: real time qRT-PCR of DHFR mRNA. The following applies: U-2 OS cells. In kind it is cell-based.
Data set [3] relates to U-2 OS cells. The data set can be described thus: cell cycle analysis by flow cytometry. In kind it is cell-based. As for the experimental part: miR-215 induces G2-arrest in HCT-116 (wt-p53) and U-2 OS cells. To investigate the mechanism by which miR-215 suppressed cell proliferation in HCT-116 (wt-p53) and U-2 OS cells, the impact of miR-215 on cell cycle control was analyzed by flow cytometry at 36 h after transfection. HCT-116 (wt-p53), HCT-116 (null-p53), U-2 OS and MG63 cells were transfected with miR-215 precursor and the non-specific control miRNA described as above. At 36 h after transfection, cells were harvested and resuspended at 0.5-1 10^5 cells/ml in modified Krishan buffer containing 0.1% sodium citrate and 0.3% NP-40 and kept at 4° C. Before analysis by flow cytometry, cells were treated with 0.02 mg/ml RNase H and stained with 0.05 mg/ml propidium iodide (Sigma).
(In flow cytometry, cells or beads pass a laser one at a time.)

In data set [4] the test system is U-2 OS cells. The experiment in a line: WST-1 cell proliferation after miR-215 transfection. The note with it: day 5, vs non-specific miRNA control. Type of data set: cell-based. As for the experimental part:
(§1) miR-215 inhibits cell proliferation of HCT-116(wt-p53) and U-2 OS cells.
(§2) Cell proliferation assays were performed on the transduced cells. HCT-116 (wt-p53), HCT-116 (null-p53), U-2 OS, and MG63 cells were plated in 96-well plates in triplicate at 1 10^3 cells/well after transfection with miR-215 precursor or non-specific control miRNA. Cells were cultured for 24, 48, 72, 96 h. The absorbance at 450 and 630 nm was measured after incubation with 10 μl of WST-1 for 2 h.

For another data set, the system named is TS. The data set can be described thus: western immunoblot of TS protein after transfection. The following applies: 48 hours after transfection. Type of data set: cell-based.
The test system of another data set is p53. The experiment in a line: western immunoblot of p53 in HCT-116 (wt-p53) and U-2 OS cells. In kind it is cell-based. The following applies: both HCT-116 (wt-p53) and U-2 OS cells, 48 h after transfection. The text has this: (§3) miR-215 increases the expression of cell cycle control genes p53 and p21. p53 and p21, a downstream target of the p53 pathway of growth control, are reported to block cells at G2 checkpoint mainly through inhibiting activity of Cdc2, the cyclin-dependent kinase that normally drives cells into mitosis, which is the ultimate target of pathways that mediate rapid arrest in G2 in response to DNA damage. To further analyze the mechanism of cell proliferation inhibition by miR-215, we transfected miR-215 precursor into HCT-116 (wt-p53) and U-2 OS cells, and evaluated the levels of cell cycle control genes p53 and p21 by western immunoblot analysis.

The test system of a further data set is p21. The data set can be described thus: western immunoblot of p21 in HCT-116 (wt-p53) and U-2 OS cells. The note with it: both HCT-116 (wt-p53) and U-2 OS cells, 48 h after transfection. In kind it is cell-based.
From the text: as §3

Another data set relates to HCT-116 (wt-p53) cells. The data set can be described thus: WST-1 cell proliferation after miR-215 transfection. Type of data set: cell-based, human. The note with it: day 5, vs non-specific miRNA control. As for the experimental part: as §1, §2
Another data set relates to 3′UTR of DHFR. The data set can be described thus: pMIR-REPORT dual-luciferase reporter assay. In kind it is cell-based, human. The following applies: HCT-116 (wt-p53), 30 hours after transfection, compared to the vector alone. From the text:
(§4) To confirm whether miR-215 directly targets TS or DHFR, plasmids were constructed containing the fragments of the 3′UTR of TS or DHFR in the downstream region of firefly luciferase. The pMIR-REPORT Luciferase miRNA Expression Reporter Vector (Ambion) was used to determine the targets of miR-215. Double stranded DNA oligonucleotides containing the miR-215 binding sequence (wt-miR-215) or mismatch sequence (mut-miR-215) in 3′UTR of TS or DHFR mRNA and the HindIII and SpeI restriction site overhangs were synthesized (IDT, Coralville, Iowa) and annealed and cloned downstream of firefly luciferase in the pMIR-REPORT plasmid. The sequences of these synthesized oligonucleotides are provided below. The 3′UTR of TS includes two miR-215 binding sites: one is located at 84-104 bp, one is located at 216-236 bp.
(§5) The constructs were transiently transfected into HCT-116 (wt-p53) cells alone (control) or together with miR-215 precursor. […] Thirty hours after transfection, cells were lysated and luciferase activity was measured by the dual-luciferase reporter assay system (Promega, Madison, Wis.) according to the instructions. […]

For the next data set, the system named is 3′UTR of TS. The data set can be described thus: pMIR-REPORT dual-luciferase reporter assay. In kind it is cell-based, human. The note with it: HCT-116 (wt-p53), 30 hours after transfection, compared to the vector alone.
From the text: as §4, §5

Method for DHFR mRNA: (§6) Expression levels of TS or DHFR mRNA were analyzed using real time qRT-PCR analysis (FIG. 15).
Method for TS mRNA: as §6

On to `O=c1[nH]cc(F)c(=O)[nH]1` [5-fluorouracil], for which the “activation of luciferase expression from miR-192 promoter p53 binding site” value in data set [1] is listed as “further enhanced”.
`Cc1nc2ccc(CN(C)c3ccc(C(=O)N[C@@H](CCC(=O)O)C(=O)O)s3)cc2c(=O)[nH]1` [TDX, Ralitrexed]: the concentration for half-maximal inhibition (IC50) in the data set on HCT-116(wt-p53) cells (HCT-116(wt-p53) cells transfected with miR-215, 72 hours) stood at 0.0987 µM; with HCT-116(wt-p53) cells (negative control (non-specific control miRNA), 72 hours), 0.0186 µM; with HCT-116(wt-p53) cells (positive control (siRNA against TS), 72 hours), 0.0085 µM.
As to `CN(Cc1cnc2nc(N)nc(N)c2n1)c1ccc(C(=O)N[C@@H](CCC(=O)O)C(=O)O)cc1` [MTX, methotrexate], the “expression of endogenous mature miR-192” value in the data set with miR-192 (HCT-116 (null-p53)) is “did not cause any change”; with miR-192 (HT-29 (mut-p53)), “did not cause any change”; with miR-192 (cells with p53 induction (wt-p53), RNU6B normalized), “significant increase”. Besides, the IC50 worked out at 0.0497 µM in the data set with U-2 OS cells [2] (read-out: IC50 of MTX, negative control (non-specific control miRNA), 72 hours) and 0.0373 µM with U-2 OS cells [2] (read-out: IC50 of MTX, positive control (siRNA against DHFR), 72 hours). The cells still alive with U-2 OS cells [2] (miR-215 transduced U-2 OS cells at 200 nM of MTX) is 83.6%.

B1: miR-215: microRNA miR-215 (SEQ ID NO:9), transfected as precursor, 72 bps hairpin stem loop processed by DICER (nucleic acid)
chain: AUCAUUCAGAAAUGGUAUACAGGAAAAUGACCUAUGAAUUGACAGACAAUAUAGCUGAGUUUGUCUGUCAUUUCUUUAGGCCAAUAUUCUGUAUGACUGUGCUACUUCAA
modifications: delivered as precursor hairpin, further chemistry not given here
On to B1, for which, in the data set on TS mRNA, the “TS mRNA expression” value is “no reduction”. Further, the “DHFR mRNA expression” value in the data set on DHFR mRNA is given as “no reduction”. In the data set on U-2 OS cells [3] (36 h after transfection (control 0.35)), the G2/S ratio was 0.72. Besides, in the data set on U-2 OS cells [3] (36 h after transfection (control 18.50%)), the “proportion of cells in the G2-phase” value is given as 29.69%. Further, in the data set on U-2 OS cells [3] (36 h after transfection (control 52.08%)), the “proportion of cells in the S-phase” value is 41.24%. Moreover, in the data set with U-2 OS cells [3] (vs control), the “increase of G2/S ratio” value is reported as over 2 fold. For the same molecule, the “reduction in cell proliferation (OD)” value with U-2 OS cells [4] is listed as about 58%; in the data set with HCT-116 (wt-p53) cells it was “approximately 40%”. Besides, in the data set with TS, the TS protein levels result is given as “clearly decreases”. Further, the p53 protein level entry in the data set with p53 is “significant increase”. In addition, in the data set on p21, the p21 protein level result is “significant increase”. Moreover, in the data set with 3′UTR of DHFR, the “luciferase activity, DHFR 3′UTR construct” value is recorded as “significant decrease”. Moreover, the “luciferase activity, TS 3′UTR construct” value with 3′UTR of TS is “significant decrease”.

(Values after patent publication US8927207B2, “miRNAs as therapeutic targets in cancer” (Research Foundation of State University of New York, priority 2008, dated 2015).)
